Laboratory results as given in the supplement of paper PMC9170038.

System: MS2 coat protein
Assay: apparent KD of MS2 coat protein; designed switch direction (-1 OFF switch, 1 ON switch): 1; higher = weaker reporter binding
Summary of the method: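 Transcription of designed RNA switches on Illumina chips was done by stalled E. coli RNA polymerase. SNAP-549-labelled MS2 coat protein was then titrated in doubling steps from 0.7 or 1.5 nM to 3 µM, with steps of 0.8–1.5 h at the lowest and 10–20 min at the highest concentration. The per-design median over clusters of curve-fitted normalised fluorescence is reported as apparent KD.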

[1] = input ligand: microRNA oligo, concentration not stated
[2] = Eterna round: R95, input ligand: FMN 200 uM
[3] = Eterna round: R95, input ligand: microRNA oligo, concentration not stated
[4] = Eterna round: R95, input ligand: none

Sequence	apparent KD of MS2 coat protein (input ligand: FMN 200 uM) [nM]	apparent KD of MS2 coat protein [1] [nM]	apparent KD of MS2 coat protein (input ligand: none) [nM]	apparent KD of MS2 coat protein [2] [nM]	apparent KD of MS2 coat protein [3] [nM]	apparent KD of MS2 coat protein [4] [nM]
GGUAGGUUACUACCAAACAUGAGGAUCACCCAUGUUGAUGGGAAGGAUAUGGUACCUUUUAGGUACCAGAAGGUCUAAUCGAUC [NGss mod of JL's mod of Fisker 4] (Eterna round: R96, puzzle: Same State NG 3)	120	115	166	–	–	–
GGUCCAGCCUGAGCUGGACUAUAGUAUGUACAUGAGGAUCACCCAUGUCAUGUAUAAGUAUGUUGUUUGUCUUGAAA [Sensorship 4 - Jieux - Sensor for hsa-mir-208a] (puzzle: Sensor for hsa-mir-208a)	–	–	–	23.6	20.1	24.2
CCAUAGUACAAUUUAGAUCUACAUGAGGAUCACCCAUGUACUGAGGAUAUCAGCUCGUUUAGAGCUGAGAAGGCAGAAGUACUU [SSNG3/6-A3] (Eterna round: R96, puzzle: Same State NG 3)	34.2	64.8	102	–	–	–
UCUUGGUUUUUGCUCGUUUUUUGUGUUGAACAUGAGGAUCACCCAUGUAUUGUACGGUCCAAUUUGGUGGUAGUCCG [JMF 68] (puzzle: Sensor for hsa-mir-208a)	–	–	–	40.4	29.6	46.9
GAGUAGUUGAAAGGAUAUAGAUUGUUGUAGGAUCUAGAAGGUUCUAACAUGAGGAUCACCCAUGUAGGACUAUUCCUGUGUAUC [Parity 87 - Jieux - Same State NG 1] (Eterna round: R96, puzzle: Same State NG 1)	11.5	8.94	13.1	–	–	–
GUUACAUGAGGAUCACCCAUGUAUGUGUGGGAGUAAGUGUCUUAGGAUAUCUGAUAUUUAAUUUAAGAGAAGGAAGAUUGUUGU [JMF's solution 29] (Eterna round: R96, puzzle: Same State NG 3)	119	69.6	85.5	–	–	–
UGGUACAUGGGAGGAUAUCUCAUGGAGACAUGAGGAUCACCCAUGUAGAUCGACGGUAACGUCGGAGAGAAGGCCCAUGUACCU [MOD JL SSNG1 3.70] (Eterna round: R96, puzzle: Same State NG 2)	17.4	32.6	50	–	–	–
UUAAUAAUGAUAGGAUAUACAUGAGGAAUUCUCGUAGAAGGAUCAUGACAUGAGGAUCACCCAUGUAACGCUCGGAAGAGCGUA [Mat - Same State NG 1 - JL mod - D38] (Eterna round: R96, puzzle: Same State NG 1)	846	236	909	–	–	–
UAUCGUUUGAUAGGAUAUCGCUAUACAUGAGGAUCACCCAUGUUUACCACGCUGGUUUUUCAUACCGAGAAGGAUUCUGAUGAG [salish99_SSNG02_r04_005] (Eterna round: R96, puzzle: Same State NG 2)	36.3	33.2	42.2	–	–	–
GGUAUUAACACAGGAUAUGCUUACGAAACGUAAGCAGAAGGGUGGACAUGAGGAUCACCCAUGUUUGUACCAGGGCGUGAGCCC [JL SSNG1 1.71] (Eterna round: R96, puzzle: Same State NG 1)	68.5	271	652	–	–	–
GAGUAGGACUUACAGGAUAUAUGGAGGUUGACAUGAGGAUCACCCAUGUCUGAGUUGGGAGGAGGAUAGAAGGGUAUGAGAGGCG [JR_SS2_Sub031] (puzzle: Same State 2)	–	–	–	27.1	23.3	22.8
UAAAUACAUGAGGAUCACCCAUGUCAAAAGACAUGAGGAUAUGUACAGACUUCGGUCUGUACAGAAGGCAUGAAUA [salish99_ss1_r3_096] (Eterna round: R96, puzzle: Same State 1)	–	417	–	–	–	–
UGUUAACAUGAGGAUCACCCAUGUCAAAUGAAGCGAGGAUAUGGAAAGUAAUAAGAUGAACUAGAAGGUGUAGAUG [Altered State 1-21 - Jieux - Same State 1] (puzzle: Same State 1)	–	–	–	40.5	48.4	52.8
AUUAUUUCAUGAGGAUAUGGCACCUUAUUGGUGCCAGAAGGCAUGUCUAUUGACAUGAGGAUCACCCAUGUAUUAUAUUAUAUA [Eli NG1ss - 88] (Eterna round: R96, puzzle: Same State NG 1)	57.4	658	493	–	–	–
UGGCUCAGAGCAGGAUAUAUGUCUCGAGCUUCGGCUCGAGACAUGAGGAUCACCCAUGUAAUAACAUAGAAGGGCUCUGAGCCU [SSNG2/1-B3] (Eterna round: R96, puzzle: Same State NG 2)	15.8	42	53.3	–	–	–
GUUACAUGAGGAUCACCCAUGUGUGUGUGGGAGUGAGUGGCUUAGGAUAUCUAUGAUUUUAGUUGAGAGAAGGAGGAUUGCUGU [SS-NG3-LRO08] (Eterna round: R96, puzzle: Same State NG 3)	439	158	347	–	–	–

Sequence	apparent KD of MS2 coat protein (input ligand: FMN 200 uM) [nM]	apparent KD of MS2 coat protein [1] [nM]	apparent KD of MS2 coat protein (input ligand: none) [nM]	apparent KD of MS2 coat protein [2] [nM]	apparent KD of MS2 coat protein [3] [nM]	apparent KD of MS2 coat protein [4] [nM]
UAUUAGAUCCGAGGAUAUCCUUAUUACAAACAUGAGGAUCACCCAUGUAAAGGGAAUGAGUUGUAGGAGAAGGCGGAUUUAGUU [JR_SSNG2_Sub057] (Eterna round: R96, puzzle: Same State NG 2)	33.5	33	51	–	–	–
UGAAAACAUGAGGAUCACCCAUGUAUUAUUAUGGGAGGAUAUGGGAAUUAAUUAAUUAAACCAGAAGGCCUAAAGU [Mat - Same State 1 - D89] (puzzle: Same State 1)	–	–	–	24.7	57.2	52.6
AGCUAUUAAUCAGGAUAUGGUCACAUGAGGAUCACCCAUGUAUAGAUGAUAAAAUGUGGUCUACACUAGAAGGGAUUGCUAACA [SameState NG2 #59] (Eterna round: R96, puzzle: Same State NG 2)	89.5	78.9	106	–	–	–
GGUAUCAUCACAGGAUAUGCUAUCCUUUGGGUAGCAGAAGGGUGGAACAUGAGGAUCACCCAUGUGGUGCCAGGGCGUGAGCCC [JL SSNG1 1.89] (Eterna round: R96, puzzle: Same State NG 1)	177	583	1880	–	–	–
AAAAAACAUGAGGAUCACCCAUGUAAAAAAAUGGGAGGAUAUCUGAAUUAAUUAAAUUAAGGAGAAGGCCUAAAAA [71%, Same state of confusion2, 4] (Eterna round: R96, puzzle: Same State 1)	–	192	–	–	–	–
CAGAGCCCAUGGGCCUGACAUGAGGAUCACCCAUGUGGCUUUGAGGAUAUAAGCGGAAACACCGCUUAGAAGGCGAAGCCUAAC [Atxerati] (Eterna round: R96, puzzle: Same State NG 3)	79.5	18.7	34.3	–	–	–
CCGUUGAUAGGACAGGAUAUGACUGUCGUCACAUGAGGAUCACCCAUGUCCCGGCAAUGCCACCGUUAGAAGGGUCCCGUCUCGG [Beenraor] (puzzle: Same State 2)	–	–	–	–	16.9	–
UAUAAACAUGAGGAUCACCCAUGUAAUAAUAUGGGAGGAUAUCAGAAUGUAUGUAUGUAAUGAGAAGGCCUAAUAU [Mat - Same State 1 - Mod of Eli - D70] (puzzle: Same State 1)	–	–	–	54.4	268	1270
CCGUAAUAUGGAGGAUAUGGAGCCUUAUUGGCUCCAGAAGGUCAAAACACAUGAGGAUCACCCAUGUCGGCGGUCAAUAGACCG [Eli NG1ss - 75] (Eterna round: R96, puzzle: Same State NG 1)	31.4	42.9	45.3	–	–	–
AACAUGAGGAUCACCCAUGUGGAAUACUGAAGCAGCUCAGGGAAGGAUAUGGUUGACACCCUCGACCAGAAGGUCCAAAUUAAA [Onarar] (Eterna round: R96, puzzle: Same State NG 3)	63.3	98.2	121	–	–	–
CCGAUGAUAGGACAGGAUAUGACUGUCGUCACAUGAGGAUCACCCAUGUCCCGGCAAUGCCACCGUUAGAAGGGUCCUAUCUCGG [Orraais] (puzzle: Same State 2)	–	–	–	–	11.9	–
ACUCUCACAGUAGGAUAUGUAGGAUAUGCCUACAUGAGGAUCACCCAUGUAAACAUGGCAGAAGGAUAGAAGGACUUACAUUGG [pwkr ssNG2 2FMN + 1F5.1] (Eterna round: R96, puzzle: Same State NG 2)	495	577	762	–	–	–
AAUAUACAUGAGGAUCACCCAUGUUAGUAAAUGACAGGAUAUGCAAUAAAUAAAUAAUAAGCAGAAGGGUCUAAUA [JMF's solution 1] (puzzle: Same State 1)	–	–	–	13.7	14.2	16
ACAUGAGGCGCAGGAUAUACAGUUGUAUAACAUGAGGACAUGACAUGAGGAUCACCCAUGUCCCAGUAGAAGGGCGAACAUGAG [Same State NG2 S2] (Eterna round: R96, puzzle: Same State NG 2)	172	102	144	–	–	–
UAUGAAUAGCAAGGAUAUUGAUAACAUGAGGAUCACCCAUGUAAUUGAUUGAGAAAGAUUAGUUACAAGAAGGUGCAAUUGAUU [JR_SSNG2_Sub034] (Eterna round: R96, puzzle: Same State NG 2)	282	441	311	–	–	–
